Target: E2F1 (UniProt Q01094)
Test: proximity ligation; in situ PLA in fixed, permeabilised H1299 cells, under normal (EV) and GAr-induced mRNA translation stress conditions; Duolink PLA kit; the antibodies of the protein-protein PLA are not told

Chain of UniProt Q01094 (Q01094 whole entry): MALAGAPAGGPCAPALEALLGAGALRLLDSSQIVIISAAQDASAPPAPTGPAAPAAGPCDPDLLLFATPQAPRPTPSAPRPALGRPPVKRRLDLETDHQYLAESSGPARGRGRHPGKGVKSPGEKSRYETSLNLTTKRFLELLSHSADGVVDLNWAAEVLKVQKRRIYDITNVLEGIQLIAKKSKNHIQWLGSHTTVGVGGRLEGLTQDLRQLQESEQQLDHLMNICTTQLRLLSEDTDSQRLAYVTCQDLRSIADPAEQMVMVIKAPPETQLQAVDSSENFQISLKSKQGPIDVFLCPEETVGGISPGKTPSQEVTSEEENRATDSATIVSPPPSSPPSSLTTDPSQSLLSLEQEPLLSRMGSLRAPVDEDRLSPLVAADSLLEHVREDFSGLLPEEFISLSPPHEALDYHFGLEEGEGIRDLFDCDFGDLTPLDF

MDM2 (from UniProt Q00987 1-491) (natural protein)
PLA interactions per cell (interactions per cell): 20

— publication PMC7337897
